Target: BST-2 with N-terminal SmBiT (UniProt Q10589)
Experiment: split reporter (BiFC, NanoBiT); HEK293T cells in 96-well plates co-transfected 1:1 with plasmids for the Vpu and BST-2 LgBiT/SmBiT fusions; Nano-Glo Live Cell Substrate added, luminescence read in live cells; negative control HaloTag with SmBiT

Sequence of UniProt Q10589 (Q10589 1-161): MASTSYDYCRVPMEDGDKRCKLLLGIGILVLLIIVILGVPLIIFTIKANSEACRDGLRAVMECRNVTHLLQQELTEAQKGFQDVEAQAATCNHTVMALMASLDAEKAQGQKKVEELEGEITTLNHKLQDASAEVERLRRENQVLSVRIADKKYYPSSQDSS
Sequence of Vpu with C-terminal LgBiT (P05919 whole entry): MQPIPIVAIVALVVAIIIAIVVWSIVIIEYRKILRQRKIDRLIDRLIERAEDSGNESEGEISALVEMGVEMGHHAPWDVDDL

Substance: Vpu with C-terminal LgBiT (from UniProt P05919 1-82) (natural protein)
- fold luminescence over control 15 min after adding substrate: 100 fold
- fold luminescence over control (Vpu with C-terminal LgBiT and HaloTag with SmBiT): 95 fold
